# Experiment: yeast display, Sf9 membrane polyspecificity reagent, FACS + sequencing; frameworks hold sequencing errors
# Procedure, shortened: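 Sorting gates, low and high (top ~1%), were placed on anti-HA fluorescence to track expression and on streptavidin fluorescence to track reagent binding. A clone's polyreactivity label is taken from the gate it came out of. The reagent was 10% biotinylated, detergent-solubilized Sf9 membrane, applied for 1 hour at 4 °C to galactose-induced yeast display cells.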
row,Sequence,polyreactivity (PSR sort gate)
1,QVQLVESGGGLVQAGGSLRLSCAASGSTFSTNAMGWYSPAPGKERELVAASTVSGGRTYYADSVKGRFTISRDNAKNTVYLQMNSLKPEDTAVYYCATDTSRLSIFGYVSFYYWGQGTQVNVSS,low polyreactivity
2,QVQLVESGGGLVQAGGSLRLSCAASGSTFSVNAMGWYRQAPGKEREFVAAIRWPGGSTYYADSVKGRFTFSRDKAKNTVYLQMNSLKPEDTAVYYCAARIKYRYDWGQGTQVTVSS,low polyreactivity
3,QVQLVESGGGLVQAGGSLRLSCAASGSTFSVYAMGWYRQAPGKERELVAAISSSGANTYYADSVKGRFTISRDNAKNTVYLQMNSLKPEDTAVYYCAAYVSGGYEYDYWGQGTQVTVSS,low polyreactivity
4,QVQLVESGGGLVQAGGSLRLSCAASGSTFSVYAMGWYRQAPGKERELVATISWGGGITYYADSVKGRFTISRDNAKNTVYLQMNSLKPEDTAVYYCAAYARYPRYYYWGQGTQVTVSS,high polyreactivity
5,QVQLVESGGGLVQAGGSLRLSCAASGSTFSWNTMGWYRQAPGKERELVAAINSGGSTYYADSVKGRFTISRDNAKNTVYLQMNSLKPEDTAVYYCAARTNYYGRFDYWGQGTQVTVSS,low polyreactivity
6,QVQLVESGGGLVQAGGSLRLSCAASGSTFSWYAMGWYRQAPGKERELVAAISYSGGTYYADSVKGRFTISRDNEKNTVYLQMNSLKPEYNAVYYCAALRTRYGYDYWGQGTQVTLSS,high polyreactivity
7,QVQLVESGGGLVQAGGSLRLSCAASGSTFSYAMGWYRQAPGKERELVAAITTSGGSTYYADSVKGRFTISRDNAKNTVYLQMNSLKPVDTAVDYCARERYYRRFYRPRRYDYWGQGTQVTVSS,low polyreactivity
8,QVQLVESGGGLVQAGGSLRLSCAASGSTFSYNAMGWYRQAPGKERELVAAISFISGSTYYADSVKGRFTISRDNAKNTVYLQMNSLKPEDTAVYYCNAGRTRRRDYYWQYDYWGQGTQVTVSS,high polyreactivity
9,QVQLVESGGGLVQAGGSLRLSCAASGSTFSYYAMGWYRQAPGKERELVAAIRKSGGSTYYADSVKGRFTISRDNAKNTVYLQMNSLKPEDTAVYSCAAVFSYYGWYSRYDYWGQGTQVTVSS,low polyreactivity
10,QVQLVESGGGLVQAGGSLRLSCAASGSTFSYYAMGWYRQAPGKERELVAAITSSGGRTYYADSVKGRFTISRDNAKYTVYLQMNSLKPEDTAVYYCATRKPRYQRAFDSWGQGTQVTVSA,high polyreactivity
11,QVQLVESGGGLVQAGGSLRLSCAASGSTFSYYAMGWYRQAPGKERELVAAITTSGGRTYYADSVKGRFTISRDNAKFTVYLQMNSLKPEDTAVYYCNARSGRLGDYWGQGTQVTVSS,high polyreactivity
12,QVQLVESGGGLVQAGGSLRLSCAASGSTFSYYAMGWYRQAPGKERELVAVISWSGGSTYYADSVKGRFTISRDNAKNTVYLQMNSLKPEDTAVYYCAARGYVRWYNRYDYWGQGTQVTVSS,low polyreactivity
13,QVQLVESGGGLVQAGGSLRLSCAASGSTFSYYTMGWYRPAPGKERELVAAITRRGDSTYADSVKGRFTISRDNAKNTGYLQMNSLKPEATAVYYCAADASVGVSGMDYWGQGTQVTVSS,low polyreactivity
14,QVQLVESGGGLVQAGGSLRLSCAASGSTFTAKAMGWYRQAPGKERELVASISARDGSTYADSVKGRFTISRDNAKNTVYLQMNSLKPEDTAVYYCNAAYFHIFPYDYDYWGQGTQVTVSS,low polyreactivity
15,QVQLVESGGGLVQAGGSLRLSCAASGSTFTANAMGWYRQAPWKERELVASISAREGSTYADSVKGRFTISRDNANNTVYLQMNSLKPEDTAVYYCNAAYFHIFPYDYDYWGQCTQVTVSS,low polyreactivity
16,QVQLVESGGGLVQAGGSLRLSCAASGSTFTAYAMGWYRQAPGKERELVAAISKRSGGTYYADSVKGRFTISRDNAKNTVYLQMNSLKPEDTAVYYCGQGTQVTVSS,low polyreactivity
17,QVQLVESGGGLVQAGGSLRLSCAASGSTFTAYAMGWYRQAPGKERELVAVITSGGGTFYADSVKGRFTISRDNAKNTVYLQMNSLKPEDTAVYYCNAARTYPGTYIYRYGYWGQGTQVTVSP,high polyreactivity
18,QVQLVESGGGLVQAGGSLRLSCAASGSTFTFNAMGWYRQAPGKERELVAAITSRGGSTYYADSVKGRFTISRDNAKNTVYLQMNSLKPEDTAVYYCAATLRGQKTRREYWGQGTQVTVSS,high polyreactivity
19,QVQLVESGGGLVQAGGSLRLSCAASGSTFTGNAMGWSRQAPGKERELVAAITDRGGSTYADSVKGRFTISRDNAKNTVYLQMNSLKPEDSAVYYCATRRDLHDRYEYDYWGQGTQVTVSS,low polyreactivity
20,QVQLVESGGGLVQAGGSLRLSCAASGSTFTGNAMGWYRQAPGKERELVAAISRSGGSTFYADSVKGRFTISRDNAKNTVYLQINSLKPEDTAVYYCAAPVYLYGTVGRGDYWGQGTQVTVSS,high polyreactivity
21,QVQLVESGGGLVQAGGSLRLSCAASGSTFTGNAMGWYRQAPGKERELVAAITKGGSRTYYADSVKGRFTISRDNAKNTVYLQMNSLKPEDTAVYYCAATSRGTDYWGQGTQVTVSS,high polyreactivity

row,Sequence,polyreactivity (PSR sort gate)
1,QVQLVESGGGLVQAGGSLRLSCAASGSTFTGNVMGWYRQAPGKERELVAAIRDSGGSTYYADSVKGRFTISRDNAKNTVYLQMNSLKPEDTAVYYCDAEYLYGSYYGYYYWGQGTQVTVSS,low polyreactivity
2,QVQLVESGGGLVQAGGSLRLSCAASGSTFTGYAMGWYRQAPGKERELVAGITGSGGSTYYADSVKGRFTISRDNATNTVYLQMNSLKPEDTAVFYCAAAFWYQYVWLDYYWGQGTQVTVSS,low polyreactivity
3,QVQLVESGGGLVQAGGSLRLSCAASGSTFTHYAMGWYIQAPWKERELVAGISWGGSSTYYADSVKGRFTISRDNAKNTVYLQMNSLKPEDTAVYYCAAGRRGSYPGGYGYWGQGTQVTVSS,low polyreactivity
4,QVQLVESGGGLVQAGGSLRLSCAASGSTFTHYAMGWYRQAPGKERELVAAITSSGGSTYYADSVKGRFTISRDNAKNTDYLQMNSLKPVDTAVYYCAARGSYRNRYRHDYWGQGTQVTVSS,high polyreactivity
5,QVQLVESGGGLVQAGGSLRLSCAASGSTFTHYVMGWYRQEPGKQREIVAAISDSGSTYYADSVKGRFTISRDNAKNTVYLQMNSLNPEDTAVYYCNADDVDFYYGYGYLYYDYWGQGTQVTVSS,low polyreactivity
6,QVQLVESGGGLVQAGGSLRLSCAASGSTFTINAMGWYRQAPGKERELVAAISWSDVDTYYADSVKGRFTISGDTAKNTVYLQMNSLKPEDTAVYYCSAQFSYRYYTDEVGYLGQGTQVTVSS,high polyreactivity
7,QVQLVESGGGLVQAGGSLRLSCAASGSTFTIYAMGWYRQAPGKEREFVAAIDEDDGSTYYADSVKGRFTISRDNAKNTVYLQMNSLKPEDTAVYYCNADDIWGYAFDYWGQGTQVTVSS,low polyreactivity
8,QVQLVESGGGLVQAGGSLRLSCAASGSTFTLNAMGWYRQAPGKERELVADISWSSGRTYYADSVKGRFTISRDTEKNTVYLQMNSLKPEDTAVYYCATDDLSIVKFYAYYPEFDYWGQGTQVTVSS,low polyreactivity
9,QVQLVESGGGLVQAGGSLRLSCAASGSTFTLYAMGWYRQAPGKERELVATIDWSGGSTYYADSVKGRFTISRDNAKNTVYLQMNSLKPEDTAVYYCAADSYVVFYRGYTFIAVHSYEYWGQGTQVTVSS,low polyreactivity
10,QVQLVESGGGLVQAGGSLRLSCAASGSTFTNYAMGWYRQAPGKEREFVAAITFRGGRTYYADSVKGRFTISRDNAKNTVYLQMNSLKPEDTAVYYCNKRTSPKRFDYWGQGTQVTVSS,high polyreactivity
11,QVQLVESGGGLVQAGGSLRLSCAASGSTFTNYAMGWYRQAPGKERELVAAINSGGSTHYADSVKGRFTISRDNAKNTVYLQMNSLKPEDTAVYYCAADPSALVYYWRWLGYDYWGQGTQVTVSS,high polyreactivity
12,QVQLVESGGGLVQAGGSLRLSCAASGSTFTPNAMGWYRQAPGKERELVAAITTRGSSTYYADSVKGRFTISRDNAKNTVYLQMNSLKPEDTAVYYCNAGVTFRRYDYWGQGTQVTVSS,high polyreactivity
13,QVQLVESGGGLVQAGGSLRLSCAASGSTFTPYAIGWYRQAPGKERELVAAIRRGGSTNYADSVKGRFTISRDNAKNTVYLQMNSLKPEDTAVYYCAATKRRFVKFDYWGQGTQVTVSS,low polyreactivity
14,QVQLVESGGGLVQAGGSLRLSCAASGSTFTPYAMGWYRQAPGKERELVAAISIRGGSTNYADSVKGRFTISRDNAKNTVYLQMNSLKPEDTAVYYCNAGRLRYIFKSYDYWGQGTQVTVSS,high polyreactivity
15,QVQLVESGGGLVQAGGSLRLSCAASGSTFTPYAMGWYRQAPGKERELVAAISWSDDSTYYADSVKGRFTISRDIAKNTVYLQMNSLKPEDTAVYYCAASAYVDYGVYTYIMDYWGQGTQVTVSS,high polyreactivity
16,QVQLVESGGGLVQAGGSLRLSCAASGSTFTQYAMGWYRQEPGKERELVAAITGSGGRTYYADSVKGRFTISRDNAKNTVYLQMNSLKPEDTAVYYCAARDKFGGYYHWGQGTQVTVSS,high polyreactivity
17,QVQLVESGGGLVQAGGSLRLSCAASGSTFTRNAMGLYRQAPGKERELVAAITSGGSTNYADSVKGRFTISRDNAKNTVYLQMNSLKPEDTAVYYCNAESPLSYTRHDSWGQGTQVTVSS,low polyreactivity
18,QVQLVESGGGLVQAGGSLRLSCAASGSTFTRNAMGWYRQAPGKERELVATISRSGGSTYYADSVKGRFTISRDNAKNTVYLQMNSLKPEDTAVYYCARPYQYYKFYSHDYWGQGTQVTVSS,high polyreactivity
19,QVQLVESGGGLVQAGGSLRLSCAASGSTFTRYAMGWYRQAPGKERELVAAISSGGSTYADSVKGRFTISRDNAKNTVYLQMNSLKPEDTAVYYCAARLYTYPKGKYWGQGTQVTVSS,high polyreactivity
20,QVQLVESGGGLVQAGGSLRLSCAASGSTFTRYAMGWYRQAPGKERELVAGITGRGGSTYYADSVKGRFTISRDNAKNTVYFQMNSLKPEDTAVYYCNKRRRGVTTYDYWGQGTQVTVSS,high polyreactivity

# Source: the nanobody polyreactivity screen of Harvey et al. (2022)
